Experiments:
[1] = molecular target: T1, Recombinant soluble E protein (0.8E-His) from DENV-1 (DENV-1, UniProt P27909 281-675)
T1 construct: also called DENV-1 E protein; DV1

[2] = molecular target: T2, Recombinant soluble E protein (0.8E-His) from DENV-4 (DENV-4, UniProt P09866 280-674); experiment: SPR, Biacore T200
T2 construct: also called DENV-4 E protein; DV4

[3] = molecular target: T3, Recombinant soluble E protein (0.8E-His) from DENV-2 (DENV-2, UniProt P14340 281-675); experiment: SPR, Biacore T200
T3 construct: also called DENV-2 E protein; DV2

[4] = molecular target: T4, Recombinant soluble E protein (0.8E-His) from DENV-3 (DENV-3, UniProt P27915 281-673)
T4 construct: also called DENV-3 E protein; DV3

| Binder | Kd [1] [pM] | binding result [2] | binding result [3] | Kd [4] [pM] |
| --- | --- | --- | --- | --- |
| DG_3CH953-SG182/3CL633-SK1 (antibody, V domains shown) VH: QVQLVQSGPDVEKPGASVKVSCKASGYTFTSNYIHWVRQAPGQGLEWMGVINPRGGSRRSAQKFQGRITMTRDTSTSTVYMELSSLRSEDTAVYYCARGGRALFYDSYTTPFDGGSWWFDPWGQGSLVTVSS VL: DIQLTQSPSSLSASVGDRVTITCQASQDIRKYLNWYQQKPGKAPKLLIYDASNLKTGVPSRFSGSGSGTDFTLTISSLQPEDVATYYCQQFDDLPITFGQGTRLQIKR | 1650 | binds | binds | 4.96 |
| DG_3CH987-SG182/3CL119-SK1 (antibody, V domains shown) VH: QVQLVQSGPDVEKPGASVKVSCKASGYTFTSYYIHWVRQAPGQGLEWMGVINPRGGSRRSAQKFQGRITMTRDTSTSTVYMELSSLRSEDTAVYYCARGGRALFYDSYTTPFDGGSWWFDPWGQGSLVTVSS VL: DIQLTQSPSSLSASVGDRVTFTCQASQEIRKYLNWYQQKPGKAPKLLIYDASNLKTGVPSRFSGSGSGTDFTFTISSLQPEDVATYYCQQFDDLPITFGQGTRLQIKR | 1530 | binds | binds | 0.715 |
| DG_3CH989-SG182/3CL119-SK1 (antibody, V domains shown) VH: QVQLVQSGAEVKKPGASVKVSCKASGYTFTSNYIHWVRQAPGQGLEWMGVINPRGGSRRSAQKFQGRVTMTRDTSTSTVYMELSSLRSEDTAVYYCARGGRALFYDSYTTPFDGGSWWFDPWGQGSLVTVSS VL: DIQLTQSPSSLSASVGDRVTFTCQASQEIRKYLNWYQQKPGKAPKLLIYDASNLKTGVPSRFSGSGSGTDFTFTISSLQPEDVATYYCQQFDDLPITFGQGTRLQIKR | 1530 | binds | binds | 6.83 |
| DG_3CH953-SG1095/3CL119-SK1 (antibody) heavy: QVQLVQSGPDVEKPGASVKVSCKASGYTFTSNYIHWVRQAPGQGLEWMGVINPRGGSRRSAQKFQGRITMTRDTSTSTVYMELSSLRSEDTAVYYCARGGRALFYDSYTTPFDGGSWWFDPWGQGSLVTVSSASTKGPSVFPLAPSSKSTSGGTAALGCLVKDYFPEPVTVSWNSGALTSGVHTFPAVLQSSGLYSLSSVVTVPSSSLGTQTYICNVNHKPSNTKVDKRVEPKSCDKTHTCPPCPAPEAAGGPSVFLFPPKPKDTLMISRTPEVTCVVVDVSHEDPEVKFNWYVDGVEVHNAKTKPREEQYNSTYRVVSVLTVLHQDWLNGKEYKCKVSNAALPAPISKTISKAKGQPREPQVYTLPPSREEMTKNQVSLTCLVKGFYPSDIAVEWESNGQPENNYKTTPPVLDSDGSFFLYSKLTVDKSRWQQGNVFSCSVMHEALHNHYTQKSLSLSP light: not shown | 1990 | binds | binds | 7.18 |
| DG_3CH953-SG1095/3CL-SK1 (antibody, human IgG1, kappa, L234A L235A) heavy: QVQLVQSGPDVEKPGASVKVSCKASGYTFTSNYIHWVRQAPGQGLEWMGVINPRGGSRRSAQKFQGRITMTRDTSTSTVYMELSSLRSEDTAVYYCARGGRALFYDSYTTPFDGGSWWFDPWGQGSLVTVSSASTKGPSVFPLAPSSKSTSGGTAALGCLVKDYFPEPVTVSWNSGALTSGVHTFPAVLQSSGLYSLSSVVTVPSSSLGTQTYICNVNHKPSNTKVDKRVEPKSCDKTHTCPPCPAPEAAGGPSVFLFPPKPKDTLMISRTPEVTCVVVDVSHEDPEVKFNWYVDGVEVHNAKTKPREEQYNSTYRVVSVLTVLHQDWLNGKEYKCKVSNAALPAPISKTISKAKGQPREPQVYTLPPSREEMTKNQVSLTCLVKGFYPSDIAVEWESNGQPENNYKTTPPVLDSDGSFFLYSKLTVDKSRWQQGNVFSCSVMHEALHNHYTQKSLSLSP light: not shown | 1790 |  |  | 7.03 |
| DG_3CH953-SG1106/3CL-SK1 (antibody) heavy: QVQLVQSGPDVEKPGASVKVSCKASGYTFTSNYIHWVRQAPGQGLEWMGVINPRGGSRRSAQKFQGRITMTRDTSTSTVYMELSSLRSEDTAVYYCARGGRALFYDSYTTPFDGGSWWFDPWGQGSLVTVSSASTKGPSVFPLAPSSKSTSGGTAALGCLVKDYFPEPVTVSWNSGALTSGVHTFPAVLQSSGLYSLSSVVTVPSSSLGTQTYICNVNHKPSNTKVDKRVEPKSCDKTHTCPPCPAPEAAGGPSVFLFPPKPKDTLMISRTPEVTCVVVDVSHEDPEVKFNWYVDGVEVHNAKTKPREEQYNSTYRVVSVLTVLHQDWLNGKEYKCKVSNAALPAPISKTISKAKGQPREPQVYTLPPSREEMTKNQVSLTCLVKGFYPSDIAVEWESNGQPENNYKTTPPVLDSDGSFFLYSKLTVDKSRWQQGNVFSCSVLHEALHAHYTRKELSLSP light: not shown | 1850 |  |  | 7.08 |
| DG_3CH953-SG182/3CL666-SK1 (antibody, V domains shown) VH: QVQLVQSGPDVEKPGASVKVSCKASGYTFTSNYIHWVRQAPGQGLEWMGVINPRGGSRRSAQKFQGRITMTRDTSTSTVYMELSSLRSEDTAVYYCARGGRALFYDSYTTPFDGGSWWFDPWGQGSLVTVSS VL: DIQLTQSPSSLSASVGDRVTITCQASQEIRKYLNWYQQKPGKAPKLLIYDASNLKTGVPSRFSGSGSGTDFTLTISSLQPEDVATYYCQQFDDLPITFGQGTRLQIKR | 1690 | binds | binds | 5.48 |
| DG_3CH953-SG1095/3CL012-SK1 (antibody, human IgG1, kappa, L234A L235A) heavy: QVQLVQSGPDVEKPGASVKVSCKASGYTFTSNYIHWVRQAPGQGLEWMGVINPRGGSRRSAQKFQGRITMTRDTSTSTVYMELSSLRSEDTAVYYCARGGRALFYDSYTTPFDGGSWWFDPWGQGSLVTVSSASTKGPSVFPLAPSSKSTSGGTAALGCLVKDYFPEPVTVSWNSGALTSGVHTFPAVLQSSGLYSLSSVVTVPSSSLGTQTYICNVNHKPSNTKVDKRVEPKSCDKTHTCPPCPAPEAAGGPSVFLFPPKPKDTLMISRTPEVTCVVVDVSHEDPEVKFNWYVDGVEVHNAKTKPREEQYNSTYRVVSVLTVLHQDWLNGKEYKCKVSNAALPAPISKTISKAKGQPREPQVYTLPPSREEMTKNQVSLTCLVKGFYPSDIAVEWESNGQPENNYKTTPPVLDSDGSFFLYSKLTVDKSRWQQGNVFSCSVMHEALHNHYTQKSLSLSP light: not shown | 1860 | binds | binds | 5.53 |
| DG_3CH987-SG182/3CL012-SK1 (antibody, V domains shown) VH: QVQLVQSGPDVEKPGASVKVSCKASGYTFTSYYIHWVRQAPGQGLEWMGVINPRGGSRRSAQKFQGRITMTRDTSTSTVYMELSSLRSEDTAVYYCARGGRALFYDSYTTPFDGGSWWFDPWGQGSLVTVSS VL: DIQLTQSPSSLSASVGDRVTFTCQASQDIRKYLNWYQQKPGKAPKLLIYDASNLKTGVPSRFSGSGSGTDFTFTISSLQPEDVATYYCQQFEDLPITFGQGTRLQIKR | 1420 | binds | binds | 2.67 |
| DG_3CH989-SG182/3CL012-SK1 (antibody, V domains shown) VH: QVQLVQSGAEVKKPGASVKVSCKASGYTFTSNYIHWVRQAPGQGLEWMGVINPRGGSRRSAQKFQGRVTMTRDTSTSTVYMELSSLRSEDTAVYYCARGGRALFYDSYTTPFDGGSWWFDPWGQGSLVTVSS VL: DIQLTQSPSSLSASVGDRVTFTCQASQDIRKYLNWYQQKPGKAPKLLIYDASNLKTGVPSRFSGSGSGTDFTFTISSLQPEDVATYYCQQFEDLPITFGQGTRLQIKR | 1520 | binds | binds | 0.0967 |
| DG_3CH987-SG182/3CL-SK1 (antibody, V domains shown) VH: QVQLVQSGPDVEKPGASVKVSCKASGYTFTSYYIHWVRQAPGQGLEWMGVINPRGGSRRSAQKFQGRITMTRDTSTSTVYMELSSLRSEDTAVYYCARGGRALFYDSYTTPFDGGSWWFDPWGQGSLVTVSS VL: DIQLTQSPSSLSASVGDRVTFTCQASQDIRKYLNWYQQKPGKAPKLLIYDASNLKTGVPSRFSGSGSGTDFTFTISSLQPEDVATYYCQQFDDLPITFGQGTRLQIKR | 1820 | binds | binds | 0.986 |
| DG_3CH1047-SG1095/3CL-SK1 (antibody, human IgG1, kappa, L234A L235A) heavy: QVQLVQSGPDVEKPGASVKVSCKASGYTFTSYYMHWVRQAPGQGLEWMGVINPRGGSRRSAQKFQGRITMTRDTSTSTVYMELSSLRSEDTAVYYCARGGEALFYDSYTTPFDGGSWWFDPWGQGSLVTVSSASTKGPSVFPLAPSSKSTSGGTAALGCLVKDYFPEPVTVSWNSGALTSGVHTFPAVLQSSGLYSLSSVVTVPSSSLGTQTYICNVNHKPSNTKVDKRVEPKSCDKTHTCPPCPAPEAAGGPSVFLFPPKPKDTLMISRTPEVTCVVVDVSHEDPEVKFNWYVDGVEVHNAKTKPREEQYNSTYRVVSVLTVLHQDWLNGKEYKCKVSNAALPAPISKTISKAKGQPREPQVYTLPPSREEMTKNQVSLTCLVKGFYPSDIAVEWESNGQPENNYKTTPPVLDSDGSFFLYSKLTVDKSRWQQGNVFSCSVMHEALHNHYTQKSLSLSP light: not shown | 2090 |  |  | 2.93 |
| DG_3CH953-SG182/3CL668-SK1 (antibody, V domains shown) VH: QVQLVQSGPDVEKPGASVKVSCKASGYTFTSNYIHWVRQAPGQGLEWMGVINPRGGSRRSAQKFQGRITMTRDTSTSTVYMELSSLRSEDTAVYYCARGGRALFYDSYTTPFDGGSWWFDPWGQGSLVTVSS VL: DIQLTQSPSSLSASVGDRVTITCQASQDIRKYLNWYQQKPGKAPKLLIYDASNLKTGVPSRFSGSGSGTDFTLTISSLQPEDVATYYCQQFEDLPITFGQGTRLQIKR | 1680 | binds | binds | 2.36 |
| DG_3CH1047-SG1106/3CL-SK1 (antibody) heavy: QVQLVQSGPDVEKPGASVKVSCKASGYTFTSYYMHWVRQAPGQGLEWMGVINPRGGSRRSAQKFQGRITMTRDTSTSTVYMELSSLRSEDTAVYYCARGGEALFYDSYTTPFDGGSWWFDPWGQGSLVTVSSASTKGPSVFPLAPSSKSTSGGTAALGCLVKDYFPEPVTVSWNSGALTSGVHTFPAVLQSSGLYSLSSVVTVPSSSLGTQTYICNVNHKPSNTKVDKRVEPKSCDKTHTCPPCPAPEAAGGPSVFLFPPKPKDTLMISRTPEVTCVVVDVSHEDPEVKFNWYVDGVEVHNAKTKPREEQYNSTYRVVSVLTVLHQDWLNGKEYKCKVSNAALPAPISKTISKAKGQPREPQVYTLPPSREEMTKNQVSLTCLVKGFYPSDIAVEWESNGQPENNYKTTPPVLDSDGSFFLYSKLTVDKSRWQQGNVFSCSVLHEALHAHYTRKELSLSP light: not shown | 2120 |  |  | 4.71 |
